Stoichiometry N data for one substance are collected here from publication PMC6794372.

For experiment [1], the target named is PRA, recombinant C-terminal domain of MYH9, His-SUMO tag removed. The experiment is described as follows: non-reducing SDS-PAGE and Western blot; PRA (5 mM) alone or pre-incubated with S100A4 (10 mM, 3 mM CaCl2) at 4°C for 1 h; without DTT; blot with anti-MYH9 pAb. On the technique in general: Immunoblotting shows a protein as a band on a membrane.
For experiment [2] the target is unchanged. As to the kind of experiment: negative-stain electron microscopy; purified PRA (5 mM) for 1 h at 4°C in 50 mM Tris, 150 mM NaCl, 10% glycerol, 3 mM CaCl2; supernatant after centrifugation, 1% uranyl acetate.

For orientation: stoichiometry N means a count of units in the complex or per binding partner. As to “PRA, recombinant C-terminal domain of MYH9, His-SUMO tag removed (domain or fragment)”, the stoichiometry N in experiment [1] and in experiment [2] was 2 in each case.
